Measured values published in patent publication US20250388683A1 (VETOQUINOL, published 2025).
Where two headings read alike, the source gives them in different places. Blank lines part the entries; values can stand above or below the binder they belong to.

Assays:
Assay in all cases: cell-based or functional assay
[1] = molecular target: T1, canine IL-31RA expressed on HEK-Blue STAT3 canine IL-31R reporter cells (with canine OSMR) (canine)
[2] = molecular target: T1, canine IL-31RA expressed on HEK-Blue …; remark: listed apart in the source
[3] = molecular target: T1, canine IL-31RA expressed on HEK-Blue …; remark: listed apart in the source
[4] = molecular target: T1, canine IL-31RA expressed on HEK-Blue …; remark: listed apart in the source
[5] = molecular target: T1, canine IL-31RA expressed on HEK-Blue …; remark: listed apart in the source
[6] = molecular target: T1, canine IL-31RA expressed on HEK-Blue …; remark: listed apart in the source
[7] = molecular target: T1, canine IL-31RA expressed on HEK-Blue …; remark: listed apart in the source
[8] = molecular target: T1, canine IL-31RA expressed on HEK-Blue …; remark: listed apart in the source
[9] = molecular target: T1, canine IL-31RA expressed on HEK-Blue …; remark: listed apart in the source
[10] = molecular target: T1, canine IL-31RA expressed on HEK-Blue …; remark: listed apart in the source
[11] = molecular target: T1, canine IL-31RA expressed on HEK-Blue …; remark: listed apart in the source
[12] = molecular target: T1, canine IL-31RA expressed on HEK-Blue …; remark: listed apart in the source

IC50 (read off the curve); STAT3-SEAP reporter, canine IL-31 stimulation [1]: ~1000 pM
IC50 ratio (IC50 candidate/IC50 VTQ2101) [2]: 1.5 ratio
B1: scFv-HLλcap-Fc-VTQ2102 (scFv-VTQ2102-HLλcap-GS18-Canine IgG2B-LALAPG-Fc) (Fc fusion)
scFv: EVTLQESGPGLVKPSQTLSLTCVASGFSIKSSFIHWLRQRPGRGLEWIGRIDPAFGATEYNPAFQGRFSITADTAKNQASLQLSSMTTEDSAVYYCARYHYAASHFDAWGQGTLVTVSSGSTSGGGSGGGSGGGGSSRIVMTQSPGSLAGSVGESVSINCKSSQSVTNDLTWYQQKPGEAPKVLITYASQRYTGVPARFSGSGYGTDFTLTINNLQAEDVGDYFCQQDYASPFTFGGGTKLTVLGPKRENGRVPRPPDCPKCPAPEAAGGPSVFIFPPKPKDTLLIARTPEVTCVVVDLDPEDPEVQISWFVDGKQMQTAKTQPREEQFNGTYRVVSVLPIGHQDWLKGKQFTCKVNNKALGSPIERTISKARGQAHQPSVYVLPPSREELSKNTVSLTCLIKDFFPPDIDVEWQSNGQQEPESKYRTTPPQLDEDGSYFLYSKLSVDKSRWQRGDTFICAVMHEALHNHYTQESLSHSPG

IC50 (read off the curve); STAT3-SEAP reporter, canine IL-31 stimulation [3]: 1000 to 10000 pM
IC50 ratio (IC50 candidate/IC50 VTQ2101) [2]: 2.2 ratio
B2: scFv-VTQ2101-LH-Fc (scFv-VTQ2101-LH-GS18-Canine IgG2B-LALAPG-Fc) (Fc fusion)
scFv: RIVMTQSPGSLAGSVGESVSINCKSSQSVTNDLTWYQQKPGEAPKVLITYASQRYTGVPARFSGSGYGTDFTLTINNLQAEDVGDYFCQQDYASPFTFGQGTKLEIKGSTSGGGSGGGSGGGGSSEVTLQESGPGLVKPSQTLSLTCVASGFSIKSSFIHWLRQRPGRGLEWIGRIDPAFGATEYNPAFQGRFSITADTAKNQASLQLSSMTTEDSAVYYCARYHYAASHFDAWGQGTLVTVSSPKRENGRVPRPPDCPKCPAPEAAGGPSVFIFPPKPKDTLLIARTPEVTCVVVDLDPEDPEVQISWFVDGKQMQTAKTQPREEQFNGTYRVVSVLPIGHQDWLKGKQFTCKVNNKALGSPIERTISKARGQAHQPSVYVLPPSREELSKNTVSLTCLIKDFFPPDIDVEWQSNGQQEPESKYRTTPPQLDEDGSYFLYSKLSVDKSRWQRGDTFICAVMHEALHNHYTQESLSHSPG

IC50 (read off the curve); STAT3-SEAP reporter, canine IL-31 stimulation [10]: ~1000 pM
IC50 ratio (IC50 candidate/IC50 VTQ2101) [2]: 1.7 ratio
B7: scFv-VTQ2101-LHλcap-Fc (scFv-VTQ2101-LHλcap-GS18-Canine IgG2B-LALAPG-Fc) (Fc fusion)
scFv: RIVMTQSPGSLAGSVGESVSINCKSSQSVTNDLTWYQQKPGEAPKVLITYASQRYTGVPARFSGSGYGTDFTLTINNLQAEDVGDYFCQQDYASPFTFGGGTKLTVLGGSTSGGGSGGGSGGGGSSEVTLQESGPGLVKPSQTLSLTCVASGFSIKSSFIHWLRQRPGRGLEWIGRIDPAFGATEYNPAFQGRFSITADTAKNQASLQLSSMTTEDSAVYYCARYHYAASHFDAWGQGTLVTVSSPKRENGRVPRPPDCPKCPAPEAAGGPSVFIFPPKPKDTLLIARTPEVTCVVVDLDPEDPEVQISWFVDGKQMQTAKTQPREEQFNGTYRVVSVLPIGHQDWLKGKQFTCKVNNKALGSPIERTISKARGQAHQPSVYVLPPSREELSKNTVSLTCLIKDFFPPDIDVEWQSNGQQEPESKYRTTPPQLDEDGSYFLYSKLSVDKSRWQRGDTFICAVMHEALHNHYTQESLSHSPG

The remaining lines, values behind:

B3: scFv-Fc-VTQ2202 (scFv-VTQ2202-HLλcap-GS18-MOUSE IgG2A-LALAPG-Fc) (Fc fusion)
scFv: EVQLQQSGAELVKPGASVKLSCTASGFNIKSSFIHWLKQRPEQGLEWIGRIDPAFGATEYNPAFQGKVTITADTSSNTAYLQLSSLTSEDTAVYYCARYHYAASHFDAWGQGTTLTVSSGSTSGGGSGGGSGGGGSSRIVMNQTPKFLPISAGDRVIITCKSSQSVTNDLTWYQQKPGQSPKVLIHYASQRYTGVPDRFTGSGYGTDFTFTISTVQAEDLAVYFCQQDYASPFTFGSGTKLTVLGPRGPTIKPCPPCKCPAPNAAGGPSVFIFPPKIKDVLMISLSPIVTCVVVDVSEDDPDVQISWFVNNVEVHTAQTQTHREDYNSTLRVVSALPIQHQDWMSGKEFKCKVNNKDLGAPIERTISKPKGSVRAPQVYVLPPPEEEMTKKQVTLTCMVTDFMPEDIYVEWTNNGKTELNYKNTEPVLDSDGSYFMYSKLRVEKKNWVERNSYSCSVVHEGLHNHHTTKSFSRTPGK
IC50 (read off the curve); STAT3-SEAP reporter, canine IL-31 stimulation [4]: ~800 pM
IC50 ratio (IC50 candidate/IC50 VTQ2101) [5]: 1 ratio

B4: monoclonal anti-cIL-31RA antibody 28F12 (antibody, V domains shown)
VH: EVQLVESDGGLAQPGRSLKLSCAASGFTFSDYYMAWVRQAPTKGLEWVATISYDGSSTYYRDSVRGRFTISRDNAKSTLYLQMDSLRSEDTATYYCARGPLTDWAPNWFAYWGQGTLVTVSS
VL: DIQMTQSPASLSASLGETVTIQCQTSEDIYSGLAWYQQKPGKSPQFLIYGASRLEDGVPSRFSGSGSGTQYSLKISSMQTEDEGVYFCQQGLKYPNTFGAGTKLELK
IC50 ratio (IC50 candidate/IC50 VTQ2101) [6]: 5.6 ratio
IC50 (read off the curve); STAT3-SEAP reporter, canine IL-31 stimulation [7]: ~700 pM

B5: scFab-Fc-VTQ2101 (scFab-VTQ2101-HLλcap-GS18-Canine IgG2B-LALAPG-Fc) (Fc fusion)
chain: RIVMTQSPGSLAGSVGESVSINCKSSQSVTNDLTWYQQKPGEAPKVLITYASQRYTGVPARFSGSGYGTDFTLTINNLQAEDVGDYFCQQDYASPFTFGQGTKLEIKRNDAQPAVYLFQPSPDQLHTGSASVVCLLNSFYPKDINVKWKVDGVIQDTGIQESVTEQDKDSTYSLSSTLTMSSTEYLSHELYSCEITHKSLPSTLIKSFQRSECGGSSGSGSGSTGTSSSGTGTSAGTTGTSASTSGSGSGGGGGSGGGGSAGGEVTLQESGPGLVKPSQTLSLTCVASGFSIKSSFIHWLRQRPGRGLEWIGRIDPAFGATEYNPAFQGRFSITADTAKNQASLQLSSMTTEDSAVYYCARYHYAASHFDAWGQGTLVTVSSASTTAPSVFPLAPSCGSTSGSTVALACLVSGYFPEPVTVSWNSGSLTSGVHTFPSVLQSSGLYSLSSMVTVPSSRWPSETFTCNVAHPASKTKVDKPVPKRENGRVPRPPDCPKCPAPEAAGGPSVFIFPPKPKDTLLIARTPEVTCVVVDLDPEDPEVQISWFVDGKQMQTAKTQPREEQFNGTYRVVSVLPIGHQDWLKGKQFTCKVNNKALGSPIERTISKARGQAHQPSVYVLPPSREELSKNTVSLTCLIKDFFPPDIDVEWQSNGQQEPESKYRTTPPQLDEDGSYFLYSKLSVDKSRWQRGDTFICAVMHEALHNHYTQESLSHSPG
IC50 (read off the curve); STAT3-SEAP reporter, canine IL-31 stimulation [8]: ~800 pM
IC50 ratio (IC50 candidate/IC50 VTQ2101) [2]: 1.3 ratio

B6: 8D3-VHL/8D3-VLH caninized antibody (VTQ2101) (antibody, V domains shown)
VH: EVTLQESGPGLVKPSQTLSLTCVASGFSIKSSFIHWLRQRPGRGLEWIGRIDPAFGATEYNPAFQGRFSITADTAKNQASLQLSSMTTEDSAVYYCARYHYAASHFDAWGQGTLVTVSS
VL: RIVMTQSPGSLAGSVGESVSINCKSSQSVTNDLTWYQQKPGEAPKVLITYASQRYTGVPARFSGSGYGTDFTLTINNLQAEDVGDYFCQQDYASPFTFGQGTKLEIK
IC50 (read off the curve); STAT3-SEAP reporter, canine IL-31 stimulation [9]: ~1000 pM
IC50 (read off the curve); STAT3-SEAP reporter, canine IL-31 stimulation [10]: ~600 pM
IC50 (read off the curve); STAT3-SEAP reporter, canine IL-31 stimulation [8]: ~600 pM
IC50 ratio (IC50 candidate/IC50 VTQ2101) [6]: 1 ratio
IC50 (read off the curve); STAT3-SEAP reporter, canine IL-31 stimulation [7]: ~50 pM
Mean IC50 (nM) (n = 3), HEK-Blue cell-based SEAP assay [11]: 0.33 nM
IC50 (read off the curve); STAT3-SEAP reporter, canine IL-31 stimulation [4]: ~1000 pM
IC50 (read off the curve); STAT3-SEAP reporter, canine IL-31 stimulation [3]: ~600 pM
IC50 (read off the curve); STAT3-SEAP reporter, canine IL-31 stimulation [1]: ~600 pM
IC50 ratio (IC50 candidate/IC50 VTQ2101) [2]: 1 ratio
IC50 ratio (IC50 candidate/IC50 VTQ2101) [5]: 1 ratio
IC50 (read off the curve); STAT3-SEAP reporter, canine IL-31 stimulation [12]: ~300 pM

B8: scFv-Fc-VTQ2201 (scFv-VTQ2201-HLλcap-GS18-Mouse IgG2A-LALAPG-Fc) (Fc fusion)
scFv: EVQLQQSGAELVKPGASVKLSCTASGFNIKDSFIHWLKQRPEQGLEWIGRIDPANGNTEYDPNFQGKVTITADTSSNTAYLQLSSLTSEDTAVYYCARYYYGNSHFDAWGQGTTLTVSSGSTSGGGSGGGSGGGGSSRIVMNQTPKFLPISAGDRVIITCKASQSVTNDVTWYQQKPGQSPKVLIHYASNRYTGVPDRFTGSGYGTDFTFTISTVQAEDLAVYFCQQDYSSPFTFGSGTKLTVLGPRGPTIKPCPPCKCPAPNAAGGPSVFIFPPKIKDVLMISLSPIVTCVVVDVSEDDPDVQISWFVNNVEVHTAQTQTHREDYNSTLRVVSALPIQHQDWMSGKEFKCKVNNKDLGAPIERTISKPKGSVRAPQVYVLPPPEEEMTKKQVTLTCMVTDFMPEDIYVEWTNNGKTELNYKNTEPVLDSDGSYFMYSKLRVEKKNWVERNSYSCSVVHEGLHNHHTTKSFSRTPGK
IC50 (read off the curve); STAT3-SEAP reporter, canine IL-31 stimulation [9]: ~1000 pM
IC50 ratio (IC50 candidate/IC50 VTQ2101) [5]: 1 ratio
